Consider one variant from IntAct's records for PubMed 21685908.

B1: Rab5 GDP/GTP exchange factor (Homo sapiens), Q9UJ41 (parent)
chain: MSLKSERRGIHVDQSDLLCKKGCGYYGNPAWQGFCSKCWREEYHKARQKQIQEDWELAERLQREEEEAFASSQSSQGAQSLTFSKFEEKKTNEKTRKVTTVKKFFSASSRVGSKKEIQEAKAPSPSINRQTSIETDRVSKEFIEFLKTFHKTGQEIYKQTKLFLEGMHYKRDLSIEEQSECAQDFYHNVAERMQTRGKVPPERVEKIMDQIEKYIMTRLYKYVFCPETTDDEKKDLAIQKRIRALRWVTPQMLCVPVNEDIPEVSDMVVKAITDIIEMDSKRVPRDKLACITKCSKHIFNAIKITKNEPASADDFLPTLIYIVLKGNPPRLQSNIQYITRFCNPSRLMTGEDGYYFTNLCCAVAFIEKLDAQSLNLSQEDFDRYMSGQTSPRKQEAESWSPDACLGVKQMYKNLDLLSQLNERQERIMNEAKKLEKDLIDWTDGIAREVQDIVEKYPLEIKPPNQPLAAIDSENVENDKLPPPLQPQVYAG

Variants of B1 are the subject of this experiment. The settings on record: with eea1_human EEA1, Q15075.
eea1_human EEA1, Q15075, sequence (Q15075 whole entry): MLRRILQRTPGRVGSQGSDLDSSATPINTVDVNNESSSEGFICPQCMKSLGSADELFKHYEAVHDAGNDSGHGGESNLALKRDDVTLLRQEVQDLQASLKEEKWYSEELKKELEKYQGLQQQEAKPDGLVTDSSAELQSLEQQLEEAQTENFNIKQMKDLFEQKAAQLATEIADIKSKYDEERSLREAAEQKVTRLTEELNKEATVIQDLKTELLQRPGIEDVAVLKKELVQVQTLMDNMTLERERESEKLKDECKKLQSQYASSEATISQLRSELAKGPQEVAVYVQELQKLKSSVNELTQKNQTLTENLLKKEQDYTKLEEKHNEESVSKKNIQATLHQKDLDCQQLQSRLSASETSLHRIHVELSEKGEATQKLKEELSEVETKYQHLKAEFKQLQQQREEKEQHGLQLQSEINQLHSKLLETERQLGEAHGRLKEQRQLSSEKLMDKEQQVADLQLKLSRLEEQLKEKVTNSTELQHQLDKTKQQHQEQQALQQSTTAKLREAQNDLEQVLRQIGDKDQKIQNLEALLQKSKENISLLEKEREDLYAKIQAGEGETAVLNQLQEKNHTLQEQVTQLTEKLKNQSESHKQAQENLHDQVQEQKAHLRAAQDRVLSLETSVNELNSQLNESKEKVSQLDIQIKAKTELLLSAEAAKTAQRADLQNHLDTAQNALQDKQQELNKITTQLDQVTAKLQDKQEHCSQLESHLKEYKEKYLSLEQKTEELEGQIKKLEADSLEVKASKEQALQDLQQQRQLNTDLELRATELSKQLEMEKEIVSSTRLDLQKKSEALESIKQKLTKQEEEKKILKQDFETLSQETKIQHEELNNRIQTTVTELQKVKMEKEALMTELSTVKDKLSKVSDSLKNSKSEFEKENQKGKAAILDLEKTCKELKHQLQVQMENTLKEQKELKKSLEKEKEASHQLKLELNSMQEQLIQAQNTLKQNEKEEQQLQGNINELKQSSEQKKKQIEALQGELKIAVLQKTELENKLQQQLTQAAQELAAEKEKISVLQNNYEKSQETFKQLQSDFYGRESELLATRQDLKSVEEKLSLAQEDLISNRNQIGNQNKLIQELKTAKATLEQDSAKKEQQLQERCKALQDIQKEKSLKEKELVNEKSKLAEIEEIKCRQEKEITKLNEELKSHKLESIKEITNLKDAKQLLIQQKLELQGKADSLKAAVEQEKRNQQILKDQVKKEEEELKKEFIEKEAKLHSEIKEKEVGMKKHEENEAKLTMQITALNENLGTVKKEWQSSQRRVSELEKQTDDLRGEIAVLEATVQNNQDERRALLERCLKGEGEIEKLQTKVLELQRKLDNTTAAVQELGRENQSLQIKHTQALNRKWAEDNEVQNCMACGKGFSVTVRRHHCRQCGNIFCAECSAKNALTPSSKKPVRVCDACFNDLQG
On to Q79L, for which the “effect of a mutation on the interaction” value was “increasing interaction”.
